# B1: Ovalbumin: ovalbumin protein payload (protein, UniProt P01012 2-386, looked up)
# Ovalbumin: GSIGAASMEFCFDVFKELKVHHANENIFYCPIAIMSALAMVYLGAKDSTRTQINKVVRFDKLPGFGDSIEAQCGTSVNVHSSLRDILNQITKPNDVYSFSLASRLYAEERYPILPEYLQCVKELYRGGLEPINFQTAADQARELINSWVESQTNGIIRNVLQPSSVDSQTAMVLVNAIVFKGLWEKAFKDEDTQAMPFRVTEQESKPVQMMYQIGLFRVASMASEKMKILELPFASGTMSMLVLLPDEVSGLEQLESIINFEKLTEWTSSNVMEERKIKVYLPRMKMEEKYNLTSVLMAMGITDVFSSSANLSGISSAESLKISQAVHAAHAEINEAGREVVGSAEAGVDAASVSEEFRADHPFLFCIKHIATNAVLFFGRCVSP
# Experiments:
# [1] = Encapsulation efficiency of proteins ensilicated in GPs with 100% TEOS; format: physicochemical; conditions: 100% TEOS prepolymerized at pH 2, SDS-PAGE
# Procedure: Dry GPs were mixed with a solution of 25 mg/mL protein in water (4 μL protein solution per mg GP, 100 μg protein per mg GP), incubated to allow for complete absorption of protein solution inside the hollow cavity of GPs, and then the samples were frozen and lyophilized. To maximize protein incorporation into GPs, the dry GP-OVA samples were hydrated with 2 μL water per mg GP, mixed, frozen, and lyophilized. TEOS (Millipore Sigma, Burlington, MA, USA; #86578, ≥99% purity, density 0.933 g/mL) was mixed with a 0.01 M HCl (pH 2) solution at a volume ratio of 2:1 (v/v) aqueous HCl:TEOS and the sample was incubated at 20° C. with constant mixing for one hour to allow for partial polymerization of TEOS. Then, the partially polymerized single phase TEOS solution was added to dry GP-protein (4 μL per mg GP) and the sample was incubated for one hour. GP ensilicated protein samples were suspended in 0.9% sterile saline (5 mg GP/mL), centrifuged and the supernatants were collected to quantify unencapsulated protein. The samples were then washed three more times in 0.9% sterile saline, suspended in 0.9% saline at 5 mg GP/mL and stored at 20° C.
# GP ensilicated protein was extracted and quantified by following the procedure described above for BSA. Proteins in the GP supernatants and pellets were quantified by SDS-PAGE.
# [2] = Ensilication (trapping) efficiency of BSA within GPs, quantified by SDS-PAGE; format: physicochemical; conditions: TEOS pre-polymerized at pH 2, TEOS:rBSA ratios of 1.3 to 24.9
# Procedure: The efficiency of ensilication of BSA within GPs was tested. […] The samples were mixed, incubated at room temperature for 30 minutes, frozen and lyophilized to remove solvent. The loading cycle was repeated by adding 10 μL of water to the dry fGP rBSA sample to draw payload within the matrix of the GP shell into the hollow GP cavity, the sample was mixed and lyophilized to remove solvent.
# TEOS was mixed with 0.01 M HCl solution (pH 2). The mixture was mixed for 1 hour to achieve TEOS prepolymerization and formation of a single aqueous phase in which the TEOS was close to its gel point. Solutions with different ratios of TEOS and 0.01 M HCl were prepared to target TEOS:rBSA weight ratios from 0 to 24.9. […]
# The ensilicated fGP-rBSA samples were washed three times with 0.9% saline. The ensilicated fGP rBSA pellets were evaluated by microscopy to assess efficient trapping of rBSA within the cavity of fGPs, and percent protein encapsulation was quantified by SDS-PAGE. […]
# Acid catalyzed TEOS forms long, linear polymers that easily entangle and gel. […] The percent of BSA trapped in GPs was measured as described above.
# GPs containing ensilicated fBSA were also prepared as described before at the optimal TEOS polymerization conditions with 0.01 M HCl (pH 2) for use as control. Percent of BSA trapped in GPs was measured as described above.
Molecule,% encapsulation efficiency in GPs [1],percent of rBSA trapped in fGPs [2]
Transferrin: transferrin protein payload,92 ± 8%,–
rBSA: rhodamine labeled BSA payload,–,> 80%
B1,97 ± 3%,–

# From patent US20240058275A1, “NANO-SILICA - IN YEAST PARTICLE (YP) DRUG ENCAPSULATION APPROACH FOR IMPROVED THERMAL AND HYDROLASE STABILITY OF YP DRUG DELIVERY FORMULATIONS” (UNIVERSITY OF MASSACHUSETTS, priority 2022, published 2024)
